B1: POU domain, class 3, transcription factor 1, residues 247 to 324; numbered along this chain, Q03052 (parent)
chain: EDAPSSDDLEQFAKQFKQRRIKLGFTQADVGLALGTLYGNVFSQTTICRFEALQLSFKNMCKLKPLLNKWLEETDSSS

Variants of: B1
Assay: abundance fitness (aPCA) (normalised: wild type 0, dead -1); higher = more abundant; growth selection in yeast, the domain comes from the species named
Conditions: Homo sapiens

Abundance fitness, by site and new letter:
L34: V -0.464 | A -0.42 | P -0.772 | M -0.158 | R -0.844 | T -0.311 | K -0.698 | D -0.415 | I -0.536 | F -0.408 | C -0.397 | W -0.914
F42: V 0.064 | N -0.597 | M 0.014 | Y 0.048 | W -0.191 | I 0.231 | G -0.594 | S -0.365 | K -0.656 | H -0.226 | D -0.295 | Q 0.001 | P -0.265 | R -0.493 | T -0.071 | E -0.114 | L -0.043
T46: Q -0.314 | S -0.191 | L -0.279 | M 0.069 | V -0.096 | I -0.121 | R -0.509 | P -0.533 | A -0.125 | Y -0.037 | D 0.118 | N -0.373 | C -0.64 | H -0.261 | K -0.304
A33: V -0.255 | I -0.317 | W -0.195 | Y -0.221 | T -0.405 | L 0.003 | C -0.474 | K -0.067 | E 0.047 | N -0.075 | H -0.332 | F -0.105 | P -0.645 | Q 0.096 | D -0.504
V41: R -0.035 | Q 0.093 | S 0.05 | Y -0.079 | A -0.018 | E 0.058 | K 0.141 | F -0.427 | I 0.025 | N 0.116 | M 0.03 | D -0.141 | L -0.127 | H 0.253 | P 0.087 | G 0.016 | C -0.142
Y38: P -0.44 | E -0.332 | D -0.058 | V -0.031 | A -0.153 | W -0.43 | K -0.153 | I 0.108 | H -0.014 | S -0.026 | Q -0.173 | N 0.019 | L -0.418 | M -0.486 | C -0.029 | F -0.13 | R -0.383
T36: H -0.299 | Q 0.032 | D 0.112 | Y -0.416 | P -0.262 | G -0.166 | M 0.02 | K 0.111 | N -0.025 | W -0.532 | S 0.134 | F -0.659 | I -0.178 | A -0.162 | V -0.36 | R 0.089 | L -0.154 | C -0.18 | E 0.158
A52: G -0.156 | L -0.275 | H -0.141 | K 0.163 | I -0.56 | C -0.362 | D 0.041
T45: C -0.346 | N 0.112 | P -0.434 | L -0.102 | Y -0.304 | I -0.557 | D 0.254 | G -0.076 | S -0.017 | V -0.148 | E 0.185 | Q 0.167 | H -0.055 | A -0.023 | R 0.016 | M -0.205 | F -0.016 | W -0.443
G39: S -0.258 | M -1.04 | A -0.365 | P -0.124 | D -0.192 | E -0.344 | W -0.421 | V -0.846 | R -0.198 | L -0.751 | T -0.196 | I -0.488 | H 0.144 | C -0.523 | N -0.213
I47: L -0.304 | H -0.944 | T -0.883 | R -0.555 | M -0.69 | V -0.228 | A -0.765 | D -1.24 | Q -0.954 | W -0.408 | C -0.294 | E -1.12 | S -0.736 | P -0.661 | G -0.751

— the Human Domainome abundance scans (Beltran et al. 2025)
